Experimental findings from publication PMC4364296 (Molecular microbiology, 2014) are described below.

T1: His-FtsZ (E. coli, UniProt P0A9A6 1-383)
T1 sequence (looked up): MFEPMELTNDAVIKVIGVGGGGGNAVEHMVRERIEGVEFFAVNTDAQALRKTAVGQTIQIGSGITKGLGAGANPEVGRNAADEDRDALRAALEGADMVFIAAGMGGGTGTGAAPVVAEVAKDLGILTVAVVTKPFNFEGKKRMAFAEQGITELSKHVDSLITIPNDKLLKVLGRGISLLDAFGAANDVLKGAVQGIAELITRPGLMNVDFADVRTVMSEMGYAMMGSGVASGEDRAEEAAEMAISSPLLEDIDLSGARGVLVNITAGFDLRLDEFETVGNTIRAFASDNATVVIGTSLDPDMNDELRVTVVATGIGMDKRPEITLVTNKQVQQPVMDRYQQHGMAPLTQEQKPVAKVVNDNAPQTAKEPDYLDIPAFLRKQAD

T2: FtsZ-L178E (E. coli, UniProt P0A9A6 1-383, L178E)
T2 sequence (looked up): T1 sequence (looked up) with L178E

B1: MinDΔ10-linker-CCTP (other, E. coli, UniProt P0AEZ3 1-260, looked up)
chain: MARIIVVTSGKGGVGKTTSSAAIATGLAQKGKKTVVIDFDIGLRNLDLIMGCERRVVYDFVNVIQGDATLNQALIKDKRTENLYILPASQTRDKDALTREGVAKVLDDLKAMDFEFIVCDSPAGIETGALMALYFADEAIITTNPEVSSVRDSDRILGILASKSRRAENGEEPIKEHLLLTRYNPGRVSRGDMLSMEDVLEILRIKLVGVIPEDQSVLRASNQGEPVILDINADAGKAYADTVERLLGEERPFRFIEEEKPEITLVTNKQVQQPVMDRYQQHGMAPLTQEQKPVAKVVNDNAPQTAKEPDYLDIPAFLRKQAD
B2: ZipA^185–328 (untagged) (domain or fragment)
chain: not shown
B3: FtsZ-360 (domain or fragment, E. coli, UniProt P0A9A6 1-360, looked up)
chain: MFEPMELTNDAVIKVIGVGGGGGNAVEHMVRERIEGVEFFAVNTDAQALRKTAVGQTIQIGSGITKGLGAGANPEVGRNAADEDRDALRAALEGADMVFIAAGMGGGTGTGAAPVVAEVAKDLGILTVAVVTKPFNFEGKKRMAFAEQGITELSKHVDSLITIPNDKLLKVLGRGISLLDAFGAANDVLKGAVQGIAELITRPGLMNVDFADVRTVMSEMGYAMMGSGVASGEDRAEEAAEMAISSPLLEDIDLSGARGVLVNITAGFDLRLDEFETVGNTIRAFASDNATVVIGTSLDPDMNDELRVTVVATGIGMDKRPEITLVTNKQVQQPVMDRYQQHGMAPLTQEQKPVAKVVND
B4: FtsZ-WT (natural protein, E. coli, UniProt P0A9A6 1-383, looked up)
chain: T1 sequence (looked up)
B5: His-SlmA/SBS (natural protein, E. coli, UniProt P0C093 1-198, looked up)
chain: MAEKQTAKRNRREEILQSLALMLESSDGSQRITTAKLAASVGVSEAALYRHFPSKTRMFDSLIEFIEDSLITRINLILKDEKDTTARLRLIVLLLLGFGERNPGLTRILTGHALMFEQDRLQGRINQLFERIEAQLRQVLREKRMREGEGYTTDETLLASQILAFCEGMLSRFVRSEFKYRPTDDFDARWPLIAAQLQ
B6: His-ZipA^185–328 (domain or fragment)
chain: not shown

For data set [1], the target named is B6. As to the kind of experiment: BLI. For orientation: Biolayer interferometry detects binding as a change in optical thickness at a sensor tip.
The target of data set [2] is B6. Description: BLI. The source holds these as a separate data set.
Data set [3] addresses B6. As to the kind of experiment: BLI. This is another data set of the same source.
Data set [4] has as its target T1, His-FtsZ. Description: BLI.
Data set [5] deals with the molecule itself. Description: sedimentation of polymers + electron microscopy.
The target of data set [6] is B4. Description: BLI.
Data set [7] addresses B4. Description: BLI. This is another data set of the same source.
In data set [8] the target is B4. Description: BLI. This is another data set of the same source.
Data set [9] deals with T2, FtsZ-L178E. Description: BLI.

Substitutions are numbered along the chain they refer to. Read-outs that look alike come from different tables or passages of the source.

Broadly, the Kd is a measure of binding affinity in units of concentration. Higher therefore signals lower affinity. Consider KEPDYLDIPAFLRKQAD (domain or fragment, E. coli, UniProt P0A9A6 367-383, looked up) [MalE-CCTP], for which, in data set [1], the affinity, expressed as Kd, was 30.8 ± 4.7 µM. On the same count and under the same terms, the value for DYLDIPAFLRKQAD (peptide, UniProt P0A9A6 370-383, looked up) [CCTP (14 amino acids)] was 140 ± 22 µM. In the case of B1, the Kd worked out at 1.4 ± 0.2 µM in data set [2] and 11.7 ± 5.2 µM in data set [3]. In turn, B2 registered a Kd in data set [4] of 8.1 ± 1.3 µM. For the molecule B3, the binding result in data set [5] is reported as “binds”. As to B4, the binding result in [5] is on record as “binds”. For B5, the binding result in data set [6] is given as “binds”. As to B6, the Kd in [7] is 0.77 ± 0.1 µM; in [8], 0.42 ± 0.1 µM; in data set [9] it was 5.3 ± 0.7 µM.
